Measured values taken from patent US20100196403A1, “ANTIBODY CONJUGATES FOR CIRCUMVENTING MULTI-DRUG RESISTANCE” (priority 2007, published 2010).

Columns and labels:
[1] = test system: HU-2 cells; assay: Cell viability of HU-2 cells with toxic drugs (Trypan blue exclusion); type: cell-based, mouse; settings: 2 μg/ml Adriamycin or 1 μg/ml colchicine, FIG. 6A
Protocol: T-25 cells (Hochman et al, 1984), derived from S49 mouse lymphoma, were transduced with a retrovirus containing the human MDR1 cDNA, as previously described (Galski et al. 1995). The resultant cells (HU-2) are cross-resistant to colchicine, doxorubicin, vinblastine and actinomycin D, and their resistance to colchicine is reversed by verapamil. T-cell lymphoma derived cell lines were grown in Dulbecco's modified eagle medium (DMEM) supplemented with 10% heat-inactivated horse serum, at 37° C. in a humidified atmosphere containing 5% CO2.
To measure the sensitivity of HU-2 cells to toxic drugs, 1×10^5 cells per well were incubated with 10 μg of the conjugate for 4 hrs. 2 μg/ml of Adriamycin or 1 μg/ml of colchicine was then added and the cells incubated for a further 96 hrs. Stocks were prepared in DMSO. The maximal final concentration of DMSO in the assays was 0.5% (v/v). After 96 h, the cells were checked by light microscopy and viable cells were counted by Trypan blue exclusion.

[2] = target: human MDR1 (P-gp) expressed in HU-2 mouse lymphoma cells (human) (UniProt P08183); assay: cell-based or functional assay
Chain of human MDR1 (P-gp) expressed in HU-2 mouse lymphoma cells (human) (P08183 whole entry): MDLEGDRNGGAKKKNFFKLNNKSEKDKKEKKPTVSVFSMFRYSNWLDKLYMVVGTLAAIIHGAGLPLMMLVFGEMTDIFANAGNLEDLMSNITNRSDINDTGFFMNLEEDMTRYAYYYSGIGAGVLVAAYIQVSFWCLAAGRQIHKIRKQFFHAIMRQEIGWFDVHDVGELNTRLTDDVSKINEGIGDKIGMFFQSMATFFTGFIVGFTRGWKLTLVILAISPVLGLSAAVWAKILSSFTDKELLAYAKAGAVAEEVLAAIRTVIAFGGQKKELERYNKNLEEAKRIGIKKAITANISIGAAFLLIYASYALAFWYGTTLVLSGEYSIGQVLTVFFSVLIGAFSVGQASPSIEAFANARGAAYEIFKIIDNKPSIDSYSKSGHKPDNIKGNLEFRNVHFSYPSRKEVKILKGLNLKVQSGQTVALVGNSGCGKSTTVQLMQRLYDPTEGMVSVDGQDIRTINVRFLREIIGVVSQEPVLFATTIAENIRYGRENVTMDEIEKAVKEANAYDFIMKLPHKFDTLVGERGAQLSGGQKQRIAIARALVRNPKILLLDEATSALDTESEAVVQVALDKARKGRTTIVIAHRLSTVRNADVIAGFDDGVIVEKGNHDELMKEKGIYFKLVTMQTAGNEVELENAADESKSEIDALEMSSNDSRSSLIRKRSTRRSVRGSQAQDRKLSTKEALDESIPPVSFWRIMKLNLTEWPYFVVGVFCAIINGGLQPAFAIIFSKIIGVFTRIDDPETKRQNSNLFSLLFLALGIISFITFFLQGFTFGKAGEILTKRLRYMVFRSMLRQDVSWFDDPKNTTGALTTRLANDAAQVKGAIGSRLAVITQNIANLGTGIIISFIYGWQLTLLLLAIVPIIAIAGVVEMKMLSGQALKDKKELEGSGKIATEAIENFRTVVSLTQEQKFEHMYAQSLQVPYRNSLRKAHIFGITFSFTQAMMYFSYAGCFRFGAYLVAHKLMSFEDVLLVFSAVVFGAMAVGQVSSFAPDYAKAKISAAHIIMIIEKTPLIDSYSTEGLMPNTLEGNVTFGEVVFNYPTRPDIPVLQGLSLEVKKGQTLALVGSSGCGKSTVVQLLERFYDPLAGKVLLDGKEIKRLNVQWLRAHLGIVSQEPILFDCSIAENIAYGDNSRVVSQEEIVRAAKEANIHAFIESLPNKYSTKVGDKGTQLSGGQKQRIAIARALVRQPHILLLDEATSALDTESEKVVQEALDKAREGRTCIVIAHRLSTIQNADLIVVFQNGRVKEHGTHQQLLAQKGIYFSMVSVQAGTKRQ

[3] = target: T1, ABCB1 transporter (Cricetulus griseus, UniProt P21448); type: cell-based, Chinese hamster
T1 construct: In drug resistant cells, calcein-AM is extruded by the ABCB1 transporter; endogenous in cells; host or cells: CHO cell clone CH(R)B30 (colchicine-resistant)
T1 sequence (P21448 whole entry): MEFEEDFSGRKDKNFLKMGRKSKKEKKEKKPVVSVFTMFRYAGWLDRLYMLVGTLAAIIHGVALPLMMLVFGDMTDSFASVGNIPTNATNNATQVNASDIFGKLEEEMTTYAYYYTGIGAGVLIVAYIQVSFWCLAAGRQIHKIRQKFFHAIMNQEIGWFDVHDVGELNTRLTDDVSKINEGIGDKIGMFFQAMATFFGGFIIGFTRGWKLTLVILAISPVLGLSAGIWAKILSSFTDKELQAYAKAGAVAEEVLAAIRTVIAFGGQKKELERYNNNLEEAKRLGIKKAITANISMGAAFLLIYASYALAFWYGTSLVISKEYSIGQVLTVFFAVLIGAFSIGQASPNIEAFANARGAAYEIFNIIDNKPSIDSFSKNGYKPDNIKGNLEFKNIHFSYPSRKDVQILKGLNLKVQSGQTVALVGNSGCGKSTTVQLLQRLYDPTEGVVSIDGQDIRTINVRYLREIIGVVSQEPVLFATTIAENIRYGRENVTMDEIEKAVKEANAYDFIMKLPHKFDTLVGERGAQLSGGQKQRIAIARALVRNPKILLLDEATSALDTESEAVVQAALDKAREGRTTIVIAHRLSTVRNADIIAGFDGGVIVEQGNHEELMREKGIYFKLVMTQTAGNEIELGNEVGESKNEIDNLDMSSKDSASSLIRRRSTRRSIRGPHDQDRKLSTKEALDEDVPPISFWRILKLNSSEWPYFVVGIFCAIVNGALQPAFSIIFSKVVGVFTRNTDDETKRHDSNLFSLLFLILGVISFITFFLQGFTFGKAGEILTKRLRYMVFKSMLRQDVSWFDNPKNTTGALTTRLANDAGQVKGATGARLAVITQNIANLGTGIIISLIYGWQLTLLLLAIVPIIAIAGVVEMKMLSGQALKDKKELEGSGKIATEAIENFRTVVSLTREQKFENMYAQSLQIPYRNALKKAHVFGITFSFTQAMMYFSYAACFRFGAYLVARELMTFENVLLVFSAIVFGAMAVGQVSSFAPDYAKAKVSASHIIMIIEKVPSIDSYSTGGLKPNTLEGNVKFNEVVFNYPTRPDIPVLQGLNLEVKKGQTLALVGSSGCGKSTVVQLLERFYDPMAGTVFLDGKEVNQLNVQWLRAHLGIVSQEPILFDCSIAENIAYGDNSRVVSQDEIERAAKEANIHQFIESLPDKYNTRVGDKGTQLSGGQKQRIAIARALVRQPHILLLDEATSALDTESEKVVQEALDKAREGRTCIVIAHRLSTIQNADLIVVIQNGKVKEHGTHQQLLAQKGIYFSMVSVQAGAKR
Protocol: Cells were grown in alpha-MEM medium supplemented with 10% Fetal Calf Serum (FCS), penicillin 50 U/ml, streptomycin 50 μg/ml, and ceftazidim 50 μg/ml. For propagation of the clone, colchicine was added to this medium to a final concentration of 20 μg/ml.
Cells were diluted in alpha MEM to about 1.5×10^6 cells/ml. Volumes of 1 ml were distributed to 2 ml Eppendorf tubes. […] The capped tubes were positioned with their longitudinal axes inclined to 45° on a roller platform and were rotated in the incubator. The cells were incubated with conjugates, proteins, or peptides, respectively, at various concentrations and for various times. […] Calcein-AM was added to a final concentration of 1 μM or 2 μM at least 30 min before the end of incubation. Calcein-AM, a substrate of ABCB1, is a hydrophobic non-fluorescent substance that easily enters cells. Once in the cytoplasm, calcein-AM is hydrolysed, and the ensuing fluorescent calcein is retained within the cells. In drug resistant cells, calcein-AM is extruded by the ABCB1 transporter. […] All vials were stopped by addition of ice-cold medium and then put on ice for subsequent flow cytometry (beginning about 1 h after the end of incubation). […] 100,000 cells, in a few experiments 50,000 cells per vial were counted. […] The median channel xM of the y distribution and yM, the number of cells in xM, were determined.

COc1cccc2c1C(=O)c1c(O)c3c(c(O)c1C2=O)C[C@@](O)(C(=O)CO)C[C@@H]3O[C@H]1C[C@H](N)[C@H](O)[C@H](C)O1 [adriamycin, doxorubicin]
viability of HU-2 cells with drug, no conjugate [1]: remain viable

COc1cc2c(c(OC)c1OC)-c1ccc(OC)c(=O)cc1[C@@H](NC(C)=O)CC2 [colchicine]
viability of HU-2 cells with drug, no conjugate [1]: remain viable

C219-S-S-(37-72)Tat conjugate (Mab C219 linked through PDPH and a disulfide bond to Cys 37 of HIV-1 (37-72)Tat) (antibody)
cell death of HU-2 cells with Adriamycin 2 µg/ml in the presence of 10 µg conjugate, Trypan blue count after 96 h, normalized to drug without conjugate [2]: 68%
cell death of HU-2 cells with colchicine 1 µg/ml in the presence of 10 µg conjugate, Trypan blue count after 96 h, normalized to drug without conjugate [2]: 91%

CFITKALGISYGRKKRRQRRRPPQGSQTHQVSLSKQ [(37-72)Tat]
shift in the flow cytometry histogram ([3]; 1 μM, 210 min, FIG. 4F): small
effect on MDR activity (summary of results) ([3]; colchicine-resistant CH(R)B30 cells): only a marginal effect
